Among the data in paper PMC11880807 are binding result and Kd values, retold here.

Common to all, as to test: MST
Data set [1] addresses T1, EXOG-ΔC68 (human, UniProt Q9Y2C4 59-300).
T1 sequence: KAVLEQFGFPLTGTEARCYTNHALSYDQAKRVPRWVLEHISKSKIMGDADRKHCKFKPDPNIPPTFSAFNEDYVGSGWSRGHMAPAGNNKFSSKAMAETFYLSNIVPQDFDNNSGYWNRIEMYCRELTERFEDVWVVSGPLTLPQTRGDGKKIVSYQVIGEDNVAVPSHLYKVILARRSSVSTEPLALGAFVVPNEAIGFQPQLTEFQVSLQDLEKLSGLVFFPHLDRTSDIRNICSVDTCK

The target of the next data set is T2, EXOG (EXOG-ΔN58) (human, UniProt Q9Y2C4 59-368).
T2 sequence: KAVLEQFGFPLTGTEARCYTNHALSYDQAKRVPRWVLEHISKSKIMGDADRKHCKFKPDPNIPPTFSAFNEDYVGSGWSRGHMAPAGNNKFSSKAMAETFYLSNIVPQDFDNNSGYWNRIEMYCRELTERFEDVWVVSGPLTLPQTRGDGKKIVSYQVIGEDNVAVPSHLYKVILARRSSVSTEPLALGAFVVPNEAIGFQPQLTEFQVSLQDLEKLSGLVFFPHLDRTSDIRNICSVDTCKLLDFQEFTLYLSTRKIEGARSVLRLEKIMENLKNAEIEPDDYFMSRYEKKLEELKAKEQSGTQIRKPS

Data set [2] addresses T1, EXOG-ΔC68. The source holds these as a separate data set.

B1: ssDNA 16-mer O10 (ssDNA)
DNA: AGTTCGTTATCGTCGC
B1: in the data set with EXOG-ΔC68 [1], the binding result was “no binding”. Also, in the data set with EXOG (EXOG-ΔN58), the affinity, expressed as Kd, was 25.1 ± 4.5 nM.

B2: ssRNA 16-mer O11 (ssRNA)
RNA: AGUUCGUUAUCGUCGC
As to B2, the dissociation constant (Kd) (commonly the equilibrium constant for the complex coming apart) with EXOG-ΔC68 [2] amounted to 155 ± 31.9 nM.
